Measurements from patent publication US6479250 (Amgen, dated 2002).

Experiments:
rat Eck receptor (rat) = rat Eck receptor (rat) (UniProt D3ZBN3); assay: cell-based or functional assay
[1] = target: T1, eck receptor extracellular domain (eck-x), soluble, expressed in CHO cells (human, UniProt P29317 24-537); assay: BIAcore, EBP on immobilized eck-x
T1 construct: extracellular domain; The construct ends at Asn534 (numbering of the eck cDNA of Lindberg et al.); Immobilized on BIAcore chips or on CNBr-Sepharose; also called soluble eck receptor; recombinant human Eck extracellular domain

[2] = target: T2, eck receptor (p130^eck), full length, on LIM 2405 cells or on CHO 19.32 cells transfected with the full … (human, UniProt P29317 24-976); assay: Scatchard analysis of steady-state binding of 125I-rEBP to LIM2405 cells, 0° C.
T2 construct: whole, on cells; also called EBP receptors
Description: Nonspecific binding was determined from parallel reactions containing a 50 fold excess of unlabeled EBP.

Chain of rat Eck receptor (rat) (D3ZBN3 entry or part of it limits assumed, form in doubt): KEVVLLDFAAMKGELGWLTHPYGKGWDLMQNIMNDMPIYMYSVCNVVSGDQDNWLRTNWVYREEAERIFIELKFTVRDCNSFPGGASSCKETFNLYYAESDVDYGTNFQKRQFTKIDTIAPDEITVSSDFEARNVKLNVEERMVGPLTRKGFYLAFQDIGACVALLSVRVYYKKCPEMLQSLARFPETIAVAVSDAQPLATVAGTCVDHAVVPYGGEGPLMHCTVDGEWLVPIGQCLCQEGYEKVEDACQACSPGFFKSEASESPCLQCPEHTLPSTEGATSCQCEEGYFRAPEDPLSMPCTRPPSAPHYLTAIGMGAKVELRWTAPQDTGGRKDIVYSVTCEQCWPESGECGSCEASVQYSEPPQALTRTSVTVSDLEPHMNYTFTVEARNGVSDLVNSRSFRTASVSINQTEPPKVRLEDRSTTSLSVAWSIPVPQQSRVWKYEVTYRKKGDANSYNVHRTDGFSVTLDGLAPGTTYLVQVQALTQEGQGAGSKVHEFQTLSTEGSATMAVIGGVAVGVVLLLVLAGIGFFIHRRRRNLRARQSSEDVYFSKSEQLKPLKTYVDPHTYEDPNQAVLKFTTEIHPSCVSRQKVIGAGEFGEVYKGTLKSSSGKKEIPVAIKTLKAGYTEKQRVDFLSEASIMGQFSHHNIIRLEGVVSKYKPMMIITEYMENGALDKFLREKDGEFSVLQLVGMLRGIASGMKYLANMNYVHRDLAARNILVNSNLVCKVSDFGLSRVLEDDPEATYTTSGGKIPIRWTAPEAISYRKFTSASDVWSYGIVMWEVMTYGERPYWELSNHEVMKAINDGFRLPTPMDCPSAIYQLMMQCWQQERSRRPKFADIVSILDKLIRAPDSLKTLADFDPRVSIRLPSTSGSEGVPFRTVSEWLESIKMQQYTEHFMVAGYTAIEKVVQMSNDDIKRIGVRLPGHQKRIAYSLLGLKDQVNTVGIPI
T2 sequence (P29317 24-976): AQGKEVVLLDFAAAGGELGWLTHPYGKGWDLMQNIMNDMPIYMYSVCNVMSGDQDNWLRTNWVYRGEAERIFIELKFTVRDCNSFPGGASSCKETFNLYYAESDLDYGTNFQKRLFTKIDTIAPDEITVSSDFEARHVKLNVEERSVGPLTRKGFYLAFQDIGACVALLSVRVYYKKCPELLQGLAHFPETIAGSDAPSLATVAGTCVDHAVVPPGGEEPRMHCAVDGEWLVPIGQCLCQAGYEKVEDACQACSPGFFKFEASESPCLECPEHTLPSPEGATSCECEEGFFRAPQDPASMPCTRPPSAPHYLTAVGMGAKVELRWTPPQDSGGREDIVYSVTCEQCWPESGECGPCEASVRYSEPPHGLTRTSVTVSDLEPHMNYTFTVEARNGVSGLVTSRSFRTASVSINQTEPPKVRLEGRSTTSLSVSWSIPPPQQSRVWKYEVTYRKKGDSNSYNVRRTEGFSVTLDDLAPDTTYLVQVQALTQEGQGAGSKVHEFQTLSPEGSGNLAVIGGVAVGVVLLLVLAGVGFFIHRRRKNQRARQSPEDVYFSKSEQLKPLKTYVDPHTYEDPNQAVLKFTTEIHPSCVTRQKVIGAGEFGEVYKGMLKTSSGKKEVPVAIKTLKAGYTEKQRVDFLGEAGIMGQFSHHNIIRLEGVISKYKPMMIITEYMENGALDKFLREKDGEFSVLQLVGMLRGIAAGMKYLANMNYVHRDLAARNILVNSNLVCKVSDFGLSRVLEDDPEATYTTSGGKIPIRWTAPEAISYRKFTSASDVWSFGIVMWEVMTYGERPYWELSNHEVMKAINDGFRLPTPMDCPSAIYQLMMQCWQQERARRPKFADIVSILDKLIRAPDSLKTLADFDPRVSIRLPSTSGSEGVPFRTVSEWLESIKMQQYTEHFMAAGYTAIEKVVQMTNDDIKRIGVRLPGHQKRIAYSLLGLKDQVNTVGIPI
T1 sequence (P29317 24-537): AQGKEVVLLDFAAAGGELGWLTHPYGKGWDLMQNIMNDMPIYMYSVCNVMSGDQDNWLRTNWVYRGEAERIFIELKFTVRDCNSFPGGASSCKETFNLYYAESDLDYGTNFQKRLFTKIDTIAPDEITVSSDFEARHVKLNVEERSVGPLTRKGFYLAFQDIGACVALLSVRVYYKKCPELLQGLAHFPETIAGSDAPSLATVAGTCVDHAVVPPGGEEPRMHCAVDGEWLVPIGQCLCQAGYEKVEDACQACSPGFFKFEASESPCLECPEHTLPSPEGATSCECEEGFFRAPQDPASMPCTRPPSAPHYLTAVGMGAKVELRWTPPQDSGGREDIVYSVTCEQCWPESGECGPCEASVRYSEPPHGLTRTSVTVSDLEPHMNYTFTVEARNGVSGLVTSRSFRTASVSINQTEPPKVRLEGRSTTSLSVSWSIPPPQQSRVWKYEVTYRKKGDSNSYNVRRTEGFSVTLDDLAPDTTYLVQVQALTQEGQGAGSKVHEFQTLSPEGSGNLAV

Kd [1]: ~24 nM
Kd [2]: 28 nM
B1: recombinant EBP from CHO cells transfected with the EBP gene (ligand)
chain: DRHTVFWNSSNPKFRNEDYTIHVQLNDYVDIICPHYEDHSVADAAMEQYILYLVEHEEYQLCQPQSKDQVRWQCNRPSAKHGPEKLSEKFQRFTPFTLGKEFKEGHSYYYISKPIHQHEDRCLRLKVTVSGKITHSPQAHVNPQEKRLAA
notes: the entry may begin with a leader at negative positions; also called CHO rEBP; rEBP
ED50 of survival of embryonic rat spinal cord neurons after 9 days in culture (rat Eck receptor (rat)): < 10 µg/mL
enhancement of survival of embryonic rat spinal cord neurons after 9 days in culture (rat Eck receptor (rat)): < 84%
